According to the supplement of paper PMC7877785:
± gives the uncertainty stated by the source.

Assay: self-splicing fitness, log relative to wild type (ln ratio); higher = more splicing; Tetrahymena group I intron in knt gene, E. coli kanamycin selection, DiMSum; sequences stand for … in CUCUCU…GGAGGGAAAAGUUAUCAGGCAUGCACCUGGUAGCUAGUCUUUAAACCAAUAGAUUGCAUCGGUUUAAAAGGCAAGACCGUCAAAUUGCGGGAAAGGGGUCAACAGCCGUUCAGUACCAAGUCUCAGGGGAAACUUUGAGAUGGCCUUGCAAAGGGUAUGGUAAUAAGCUGACGGACAUGGUCCUAACCACGCAGCCAAGUCCUAAGUCAACAGAUCUUCUGUUGAUAUGGAUGCAGUUCACAGACUAAAUGUCGGUCGGGGAAGAUGUAUUCUUCUCAUAAGAUAUAGUCGGACCUCUCCUUAAUGGGAGCUAGCGGAUGAAGUGAUGCAACACUGGAGCCGCUGGGAACUAAUUUGUAUGCGAAAGUAUAUUGAUUAGUUUUGGAGUACUCGUGGUCG
In short: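 Colonies from six replicate transformations of E. coli BL21(DE3) were pooled and amplicon-sequenced on an Illumina HiSeq 2500. The library placed an intron with all eight P1ex-region nucleotides randomised inside the knt kanamycin-resistance gene on pET-22b(+), and cells grew overnight at 37°C or 30°C on LB agar with or without 25 μg/mL kanamycin (plus 100 μg/mL carbenicillin, 50 μM IPTG, 0.2% rhamnose). Fitness is the DiMSum error-weighted combination of wild-type-normalised replicate fold changes, kanamycin versus none.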

| Sequence | self-splicing fitness (ln) (30 °C) | self-splicing fitness (ln) (37 °C) |
| --- | --- | --- |
| UCGAAGCAAUAUUACGCAAC | -2.37 ± 0.42 |  |
| UCGAAGCAAUAUUACGCAGC | -2.71 ± 0.27 | -2.18 ± 0.23 |
| UCGAAGCAAUAUUACGCAUG | -1.2 ± 0.085 | -0.698 ± 0.1 |
| UCGAAGCAAUAUUACGCCAG | -2.24 ± 0.25 | -2.09 ± 0.42 |
| UCGAAGCAAUAUUACGCCCA | -1.84 ± 0.32 | -0.793 ± 0.25 |
| UCGAAGCAAUAUUACGCCUA |  | -1.71 ± 0.42 |
| UCGAAGCAAUAUUACGCGCG | -1.26 ± 0.1 | -0.735 ± 0.12 |
| UCGAAGCAAUAUUACGCUGU | -2.33 ± 0.21 | -2.06 ± 0.33 |
| UCGAAGCAAUAUUACGCUUC | -3.77 ± 0.25 | -2.38 ± 0.3 |
| UCGAAGCAAUAUUACGGCAA | -1.81 ± 0.19 | -1.72 ± 0.17 |
| UCGAAGCAAUAUUACGGCCG | -0.31 ± 0.18 | 0.0326 ± 0.34 |
| UCGAAGCAAUAUUACGGCGU | -0.22 ± 0.087 | -0.249 ± 0.12 |
| UCGAAGCAAUAUUACGGGCU | -4.18 ± 0.39 | -2.67 ± 0.35 |
| UCGAAGCAAUAUUACGGUAG | -1.4 ± 0.1 | -1.61 ± 0.11 |
| UCGAAGCAAUAUUACGGUCU | -2.6 ± 0.14 | -0.844 ± 0.13 |
| UCGAAGCAAUAUUACGGUUA | -0.579 ± 0.12 | -0.97 ± 0.097 |
| UCGAAGCAAUAUUACGUCAU | -2.62 ± 0.15 | -2.58 ± 0.21 |
| UCGAAGCAAUAUUACGUGCU | -3.75 ± 0.18 | -3.77 ± 0.31 |
| UCGAAGCAAUAUUACGUGGU | -3.51 ± 0.18 | -2.88 ± 0.24 |
| UCGAAGCAAUAUUACGUUGG | -2.99 ± 0.12 | -1.86 ± 0.15 |
| UCGAAGCAAUAUUACGUUGU | -2.09 ± 0.19 | -2.33 ± 0.2 |
| UCGCAGCAAUAUUACGAAGA | -2.23 ± 0.13 | -1.43 ± 0.15 |
| UCGCAGCAAUAUUACGAAGU | -3.51 ± 0.2 | -2.53 ± 0.15 |
| UCGCAGCAAUAUUACGAGGU | -3.14 ± 0.25 | -2.85 ± 0.19 |
| UCGCAGCAAUAUUACGAUCA | -1.27 ± 0.15 | -1.18 ± 0.15 |

| Sequence | self-splicing fitness (ln) (30 °C) | self-splicing fitness (ln) (37 °C) |
| --- | --- | --- |
| UCGCAGCAAUAUUACGCAAC |  | -2.8 ± 0.17 |
| UCGCAGCAAUAUUACGCACU | -2.21 ± 0.18 | -0.563 ± 0.2 |
| UCGCAGCAAUAUUACGCCAG | -2.63 ± 0.084 | -1.72 ± 0.1 |
| UCGCAGCAAUAUUACGCGCU | -1.23 ± 0.12 | -1.19 ± 0.21 |
| UCGCAGCAAUAUUACGCGUU | -4.2 ± 0.27 | -2.38 ± 0.13 |
| UCGCAGCAAUAUUACGCUAG | -4.54 ± 0.25 | -2.18 ± 0.2 |
| UCGCAGCAAUAUUACGCUGG | -1.76 ± 0.16 | -2 ± 0.21 |
| UCGCAGCAAUAUUACGCUUC | -1.8 ± 0.34 | -1.68 ± 0.44 |
| UCGCAGCAAUAUUACGCUUG | -1.93 ± 0.14 | -1.83 ± 0.15 |
| UCGCAGCAAUAUUACGGAAG | -2.74 ± 0.25 | -1.74 ± 0.22 |
| UCGCAGCAAUAUUACGGAGA | -2.75 ± 0.13 | -1.02 ± 0.1 |
| UCGCAGCAAUAUUACGGAUC | -3.82 ± 0.35 |  |
| UCGCAGCAAUAUUACGGCUU | -1.16 ± 0.08 | 0.404 ± 0.12 |
| UCGCAGCAAUAUUACGGGUU | -2.63 ± 0.14 | -2.38 ± 0.16 |
| UCGCAGCAAUAUUACGGUUA | -0.15 ± 0.086 | -0.398 ± 0.087 |
| UCGCAGCAAUAUUACGGUUU | -3.17 ± 0.12 | -1.72 ± 0.12 |
| UCGCAGCAAUAUUACGUACA | -1.62 ± 0.15 | -0.509 ± 0.12 |
| UCGCAGCAAUAUUACGUAGA | -0.804 ± 0.065 | -0.0374 ± 0.079 |
| UCGCAGCAAUAUUACGUCUC |  | -1.97 ± 0.27 |
| UCGCAGCAAUAUUACGUCUG |  | -1.97 ± 0.18 |
| UCGCAGCAAUAUUACGUUCU | -3.58 ± 0.18 | -2.31 ± 0.11 |
| UCGCAGCAAUAUUACGUUGU | -2.56 ± 0.2 | -1.73 ± 0.21 |
| UCGCAGCAAUAUUACGUUUA | -1.78 ± 0.12 | -1.11 ± 0.11 |
| UCGGAGCAAUAUUACGAAUU | -2.9 ± 0.26 | -2.69 ± 0.28 |
| UCGGAGCAAUAUUACGAGUG | -2.47 ± 0.18 | -2.48 ± 0.19 |

| Sequence | self-splicing fitness (ln) (30 °C) | self-splicing fitness (ln) (37 °C) |
| --- | --- | --- |
| UCGGAGCAAUAUUACGAUCA |  | -1.23 ± 0.48 |
| UCGGAGCAAUAUUACGAUGA | -0.946 ± 0.15 | -1.11 ± 0.16 |
| UCGGAGCAAUAUUACGAUUC | -0.553 ± 0.26 | -0.938 ± 0.24 |
| UCGGAGCAAUAUUACGCGCA | -0.975 ± 0.23 |  |
| UCGGAGCAAUAUUACGCGUA | -1.73 ± 0.26 | -1.38 ± 0.21 |
| UCGGAGCAAUAUUACGCGUC | -2.14 ± 0.47 |  |
| UCGGAGCAAUAUUACGCUAU | -3.09 ± 0.34 | -2.48 ± 0.36 |
| UCGGAGCAAUAUUACGGGGA | -1.76 ± 0.2 | -1.13 ± 0.19 |
| UCGGAGCAAUAUUACGUAAA | -3.16 ± 0.31 | -1.55 ± 0.29 |
| UCGGAGCAAUAUUACGUCAA |  | -2.12 ± 0.38 |
| UCGGAGCAAUAUUACGUUUA | -2.32 ± 0.29 | -2.35 ± 0.42 |
| UCGUAGCAAUAUUACGAGAA | -2.57 ± 0.49 | -1.61 ± 0.41 |
| UCGUAGCAAUAUUACGAGUG | -3.62 ± 0.32 | -3.09 ± 0.3 |
| UCGUAGCAAUAUUACGAGUU | -3.76 ± 0.25 | -2.5 ± 0.2 |
| UCGUAGCAAUAUUACGCGGC |  | -2.15 ± 0.46 |
| UCGUAGCAAUAUUACGCGGG | -3.63 ± 0.37 | -0.254 ± 0.15 |
| UCGUAGCAAUAUUACGCUAU | -2.37 ± 0.45 | -2.88 ± 0.4 |
| UCGUAGCAAUAUUACGCUCG | -1.9 ± 0.16 | -1.2 ± 0.23 |
| UCGUAGCAAUAUUACGCUUG | -2.53 ± 0.17 | -0.409 ± 0.14 |
| UCGUAGCAAUAUUACGCUUU | -2.74 ± 0.14 | -2.4 ± 0.15 |
| UCGUAGCAAUAUUACGGCUC |  | -1.44 ± 0.24 |
| UCGUAGCAAUAUUACGGGGC | -2.26 ± 0.2 | -2.55 ± 0.27 |
| UCGUAGCAAUAUUACGGGGU | -3.35 ± 0.23 | -2.35 ± 0.25 |
| UCGUAGCAAUAUUACGGGUU | -3.23 ± 0.18 | -2.38 ± 0.23 |
| UCGUAGCAAUAUUACGUCAG | -3.66 ± 0.48 | -1.89 ± 0.29 |

| Sequence | self-splicing fitness (ln) (30 °C) | self-splicing fitness (ln) (37 °C) |
| --- | --- | --- |
| UCGUAGCAAUAUUACGUCCU | -2.04 ± 0.21 | -1.63 ± 0.31 |
| UCGUAGCAAUAUUACGUUGG | -2.59 ± 0.17 | -0.973 ± 0.17 |
| UCUAAGCAAUAUUACGAACU | -2.55 ± 0.11 | -2.26 ± 0.15 |
| UCUAAGCAAUAUUACGAAGA | -1.29 ± 0.14 | -0.678 ± 0.13 |
| UCUAAGCAAUAUUACGAGUC | -3.41 ± 0.3 | -2.93 ± 0.3 |
| UCUAAGCAAUAUUACGCAUG | -1.88 ± 0.095 | -2.07 ± 0.12 |
| UCUAAGCAAUAUUACGCCAA | -1.47 ± 0.32 | -0.954 ± 0.23 |
| UCUAAGCAAUAUUACGCCAU | -3.76 ± 0.46 | -2.37 ± 0.42 |
| UCUAAGCAAUAUUACGCCGC | -2.69 ± 0.29 |  |
| UCUAAGCAAUAUUACGCCUC | -3.67 ± 0.35 | -2.98 ± 0.47 |
| UCUAAGCAAUAUUACGCGAU | -4.31 ± 0.33 | -3.83 ± 0.36 |
| UCUAAGCAAUAUUACGCGCC |  | -2.67 ± 0.38 |
| UCUAAGCAAUAUUACGCGGA | -2.69 ± 0.3 | -2.47 ± 0.24 |
| UCUAAGCAAUAUUACGCUGG | -2.53 ± 0.12 | -2.92 ± 0.24 |
| UCUAAGCAAUAUUACGGCUG | -0.983 ± 0.21 | -1.68 ± 0.24 |
| UCUAAGCAAUAUUACGGGCC | -3.14 ± 0.33 | -2.09 ± 0.33 |
| UCUAAGCAAUAUUACGGUGU | -1.75 ± 0.083 | -1.34 ± 0.093 |
| UCUAAGCAAUAUUACGUCAC | -2.47 ± 0.24 | 0.446 ± 0.28 |
| UCUAAGCAAUAUUACGUGAA | -1.68 ± 0.088 | -0.923 ± 0.099 |
| UCUAAGCAAUAUUACGUUAA | -3.72 ± 0.32 | -1.67 ± 0.2 |
| UCUAAGCAAUAUUACGUUAU | -3.25 ± 0.24 | -2.31 ± 0.27 |
| UCUAAGCAAUAUUACGUUUC |  | -2.3 ± 0.26 |
| UCUCAGCAAUAUUACGAAUC | -3.99 ± 0.39 | -2.58 ± 0.22 |
| UCUCAGCAAUAUUACGACCC |  | -1.98 ± 0.23 |
| UCUCAGCAAUAUUACGACCU | -1.84 ± 0.18 | -0.921 ± 0.22 |
